The subject of data set [1] is HeLa Kyoto. Kind of data set: thermal stability score vs G1/S (z-score of summed log2 fold changes over temperatures); higher = more thermally stable than in G1/S.
The test system of data set [2] is HeLa Kyoto. The data set is described as follows: solubility in G1/S (NP-40 vs SDS abundance) (log2 ratio); higher = more soluble. Conditions: cell cycle stage: G1/S.
The test system of data set [3] is HeLa Kyoto. The data set is described as follows: solubility change mitosis vs G1/S (difference of NP-40 vs SDS log2 ratios) (log2 ratio difference); higher = more soluble in mitosis.
In data set [4] the test system is HeLa Kyoto. Kind of data set: melting temperature (median over replicates), in situ; higher = more thermally stable.
Setting [5] is: cell cycle stage: early G1 (4.5 h after nocodazole release).
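Wherever melting temperature (median over replicates), in situ is given: HeLa Kyoto cells synchronized by double thymidine or nocodazole block, proteins quantified by TMT10plex mass spectrometry, three independent biological replicates.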
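Wherever solubility change mitosis vs G1/S (difference of NP-40 vs SDS log2 ratios) is given: synchronized HeLa Kyoto cells (double thymidine block for G1/S, nocodazole release for mitosis), protein amounts in NP-40 versus SDS lysates quantified by mass spectrometry, three biological replicates.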
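Wherever solubility in G1/S (NP-40 vs SDS abundance) is given: HeLa Kyoto cells arrested at G1/S by double thymidine block, proteins quantified by TMT10plex mass spectrometry in mild NP-40 versus SDS extracts, three biological replicates.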
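Wherever thermal stability score vs G1/S (z-score of summed log2 fold changes over temperatures) is given: synchronized HeLa Kyoto cells, proteins quantified by TMT10plex mass spectrometry, three biological replicates, mitosis taken 0.5 h after nocodazole release, G1/S directly after double thymidine block.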

Sequence of WRAP53 (chain, as listed by the source): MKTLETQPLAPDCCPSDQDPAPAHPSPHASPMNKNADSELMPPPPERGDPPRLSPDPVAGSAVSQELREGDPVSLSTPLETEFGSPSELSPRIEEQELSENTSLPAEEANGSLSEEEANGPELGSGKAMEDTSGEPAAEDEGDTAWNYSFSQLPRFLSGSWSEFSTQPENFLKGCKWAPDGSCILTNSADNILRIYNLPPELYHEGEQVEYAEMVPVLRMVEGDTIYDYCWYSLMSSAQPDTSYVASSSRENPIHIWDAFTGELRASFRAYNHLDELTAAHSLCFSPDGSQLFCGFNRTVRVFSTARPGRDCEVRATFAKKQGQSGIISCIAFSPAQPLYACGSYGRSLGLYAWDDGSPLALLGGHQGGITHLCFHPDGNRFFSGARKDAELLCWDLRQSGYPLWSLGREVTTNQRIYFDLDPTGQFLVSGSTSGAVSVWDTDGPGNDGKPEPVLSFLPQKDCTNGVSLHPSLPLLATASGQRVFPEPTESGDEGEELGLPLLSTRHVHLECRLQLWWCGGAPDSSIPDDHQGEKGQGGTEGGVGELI

As to “MHQQKRQPELVEGNLPVFVFPTELIFYADDQSTHKQVLTLYNPYEFALKFKVLCTTPNKYVVVDAAGAVKPQCCVDIVIRHRDVRSCHYGVIDKFRLQVSEQSQRKALGRKEVVATLLPSAKEQQKEEEEKRLKEHLTESLFFEQSFQPENRAVSSGPSLLTVFLGVVCIAALMLPTLGDVESLVPLYLHLSVNQKLVAAYILGLITMAILRT [MOSPD1]”, the thermal stability score is -1.29 in the data set on HeLa Kyoto [1] (setting [5]) and -2.15 in the data set with HeLa Kyoto [1] (cell cycle stage: mitosis). In the data set on HeLa Kyoto [2], the “solubility in G1/S (log2)” value was 0.0717. Further, the “solubility change mitosis (log2)” value in the data set with HeLa Kyoto [3] came out at 0.352. In addition, the melting temperature with HeLa Kyoto [4] (cell cycle stage: G1/S) was determined as 54.2 °C; in the data set on HeLa Kyoto [4] (cell cycle stage: mitosis), 54.9 °C.
Consider “MERFRLEKKLPGPDEEAVVDLGKTSSTVNTKFEKEELESHRAVYIGVHVPFSKESRRRHRHRGHKHHHRRRKDKESDKEDGRESPSYDTPSQRVQFILGTEDDDEEHIPHDLFTEMDELCYRDGEEYEWKETARWLKFEEDVEDGGDRWSKPYVATLSLHSLFELRSCILNGTVMLDMRASTLDEIADMVLDNMIASGQLDESIRENVREALLKRHHHQNEKRFTSRIPLVRSFADIGKKHSDPHLLERNGEGLSASRHSLRTGLSASNLSLRGESPLSLLLGHLLPSSRAGTPAGSRCTTPVPTPQNSPPSSPSISRLTSRSSQESQRQAPELLVSPASDDIPTVVIHPPEEDLEAALKGEEQKNEENVDLTPGILASPQSAPGNLDNSKSGEIKGNGSGGSRENSTVDFSKVDMNFMRKIPTGAEASNVLVGEVDFLERPIIAFVRLAPAVLLTGLTEVPVPTRFLFLLLGPAGKAPQYHEIGRSIATLMTDEIFHDVAYKAKDRNDLLSGIDEFLDQVTVLPPGEWDPSIRIEPPKSVPSQEKRKIPVFHNGSTPTLGETPKEAAHHAGPELQRTGRLFGGLILDIKRKAPFFLSDFKDALSLQCLASILFLYCACMSPVITFGGLLGEATEGRISAIESLFGASLTGIAYSLFAGQPLTILGSTGPVLVFEKILYKFCRDYQLSYLSLRTSIGLWTSFLCIVLVATDASSLVCYITRFTEEAFAALICIIFIYEALEKLFDLGETYAFNMHNNLDKLTSYSCVCTEPPNPSNETLAQWKKDNITAHNISWRNLTVSECKKLRGVFLGSACGHHGPYIPDVLFWCVILFFTTFFLSSFLKQFKTKRYFPTKVRSTISDFAVFLTIVIMVTIDYLVGVPSPKLHVPEKFEPTHPERGWIISPLGDNPWWTLLIAAIPALLCTILIFMDQQITAVIINRKEHKLKKGAGYHLDLLMVGVMLGVCSVMGLPWFVAATVLSISHVNSLKVESECSAPGEQPKFLGIREQRVTGLMIFILMGLSVFMTSVLKFIPMPVLYGVFLYMGVSSLKGIQLFDRIKLFGMPAKHQPDLIYLRYVPLWKVHIFTVIQLTCLVLLWVIKVSAAAVVFPMMVLALVFVRKLMDLCFTKRELSWLDDLMPESKKKKEDDKKKKEKEEAERMLQDDDDTVHLPFEGGSLLQIPVKALKYSPDKPVSVKISFEDEPRKKYVDAETSL [SLC4A7]”, for which the thermal stability score in the data set on HeLa Kyoto [1] (setting [5]) was -0.753; in the data set on HeLa Kyoto [1] (cell cycle stage: mitosis), 1.69. Also, the “solubility in G1/S (log2)” value in the data set with HeLa Kyoto [2] was -0.196. Also, in the data set on HeLa Kyoto [3], the “solubility change mitosis (log2)” value amounted to 0.0133. Also, the melting temperature in the data set on HeLa Kyoto [4] (cell cycle stage: G1/S) is 54.4 °C; with HeLa Kyoto [4] (cell cycle stage: mitosis) it was 53.6 °C.
Take “MAVESRVTQEEIKKEPEKPIDREKTCPLLLRVFTTNNGRHHRMDEFSRGNVPSSELQIYTWMDATLKELTSLVKEVYPEARKKGTHFNFAIVFTDVKRPGYRVKEIGSTMSGRKGTDDSMTLQSQKFQIGDYLDIAITPPNRAPPPSGRMRPY [SAP18]”: the thermal stability score came to 0.467 with HeLa Kyoto [1] (setting [5]) and 3.26 in the data set with HeLa Kyoto [1] (cell cycle stage: mitosis). Further, the “solubility in G1/S (log2)” value in the data set on HeLa Kyoto [2] was -0.67. Besides, the “solubility change mitosis (log2)” value in the data set on HeLa Kyoto [3] was 0.699. In addition, the results for the melting temperature with HeLa Kyoto [4] (cell cycle stage: G1/S) and in the data set with HeLa Kyoto [4] (cell cycle stage: mitosis) were 47.5 °C and 49.7 °C, respectively.
Turning to “MKKVRLKELESRLQQVDGFEKPKLLLEQYPTRPHIAACMLYTIHNTYDDIENKVVADLGCGCGVLSIGTAMLGAGLCVGFDIDEDALEIFNRNAEEFELTNIDMVQCDVCLLSNRMSKSFDTVIMNPPFGTKNNKGTDMAFLKTALEMARTAVYSLHKSSTREHVQKKAAEWKIKIDIIAELRYDLPASYKFHKKKSVDIEVDLIRFSF [METTL5]”, the thermal stability score is -0.685 in the data set on HeLa Kyoto [1] (setting [5]) and -0.982 with HeLa Kyoto [1] (cell cycle stage: mitosis). Further, the “solubility in G1/S (log2)” value with HeLa Kyoto [2] is -0.0292. For the same substance, the “solubility change mitosis (log2)” value in the data set on HeLa Kyoto [3] was -0.277. The values for the melting temperature in the data set on HeLa Kyoto [4] (cell cycle stage: G1/S) and with HeLa Kyoto [4] (cell cycle stage: mitosis) were 58.9 °C and 63.4 °C, respectively.
On to WRAP53, for which the thermal stability score in the data set with HeLa Kyoto [1] (setting [5]) was -1.59; in the data set with HeLa Kyoto [1] (cell cycle stage: mitosis) it was -0.902. Besides, the “solubility in G1/S (log2)” value with HeLa Kyoto [2] was -0.0145. Also, in the data set on HeLa Kyoto [3], the “solubility change mitosis (log2)” value is -0.144. Moreover, the melting temperature was found to be 53.7 °C with HeLa Kyoto [4] (cell cycle stage: G1/S) and 53.4 °C with HeLa Kyoto [4] (cell cycle stage: mitosis).
As for “MSMPDAMPLPGVGEELKQAKEIEDAEKYSFMATVTKAPKKQIQFADDMQEFTKFPTKTGRRSLSRSISQSSTDSYSSAASYTDSSDDEVSPREKQQTNSKGSSNFCVKNIKQAEFGRREIEIAEQDMSALISLRKRAQGEKPLAGAKIVGCTHITAQTAVLIETLCALGAQCRWSACNIYSTQNEVAAALAEAGVAVFAWKGESEDDFWWCIDRCVNMDGWQANMILDDGGDLTHWVYKKYPNVFKKIRGIVEESVTGVHRLYQLSKAGKLCVPAMNVNDSVTKQKFDNLYCCRESILDGLKRTTDVMFGGKQVVVCGYGEVGKGCCAALKALGAIVYITEIDPICALQACMDGFRVVKLNEVIRQVDVVITCTGNKNVVTREHLDRMKNSCIVCNMGHSNTEIDVTSLRTPELTWERVRSQVDHVIWPDGKRVVLLAEGRLLNLSCSTVPTFVLSITATTQALALIELYNAPEGRYKQDVYLLPKKMDEYVASLHLPSFDAHLTELTDDQAKYLGLNKNGPFKPNYYRY [AHCYL1]”, the thermal stability score with HeLa Kyoto [1] (setting [5]) was -5.66; in the data set with HeLa Kyoto [1] (cell cycle stage: mitosis), -9.49. For the same substance, the “solubility in G1/S (log2)” value in the data set with HeLa Kyoto [2] is -0.111. In the data set with HeLa Kyoto [3], the “solubility change mitosis (log2)” value is -0.119. Besides, the melting temperature in the data set with HeLa Kyoto [4] (cell cycle stage: G1/S) amounted to 56.4 °C; with HeLa Kyoto [4] (cell cycle stage: mitosis), 54.6 °C.

The values above are taken from the supplement of paper PMC5998384.
